According to article PMC9485244:

How the values were obtained:
[1] = molecular target: TatB^mNeon (E. coli TatB C-terminally tagged with mNeonGreen) (E. coli) (UniProt P69425); test: single-molecule photobleaching step counting; individual CellMask-positive IMVs adsorbed on plasma-cleaned coverslips, narrow-field epifluorescence (488 nm), 50 mM Tris-HCl, 150 mM NaCl, pH 7.5; step histograms (manual and PDD) fit to oligomer models (monomer to octamer) with Poisson distribution of complexes in IMVs and binomial fluorescence detection efficiency; copies per Tat receptor complex
[2] = molecular target: TatC^mNeon (E. coli TatC C-terminally tagged with mNeonGreen) (E. coli) (UniProt P69423); test: as above

Row | stoichiometry N (copies per receptor complex) [1] | stoichiometry N (copies per receptor complex) [2] | Substance
1 | 4 | – | TatB^mNeon (E. coli TatB C-terminally tagged with mNeonGreen) (from UniProt P69425 1-171) (natural protein)
2 | – | 4 | TatC^mNeon (E. coli TatC C-terminally tagged with mNeonGreen) (from UniProt P69423 1-258) (natural protein)
